Like-named read-outs stand apart in the source and are kept apart here. Where no end group is shown, it is not given here. [ ]: non-standard residue; d: D form. fluorescein = N-terminal fluorescein label; pT = C[C@@H](OP(=O)(O)O)[C@H](N)C(=O)O; pS = N[C@@H](COP(=O)(O)O)C(=O)O

Assay [1] addresses T1, GST (UniProt P08515 1-218 = GST).
T1 construct: Control protein; also called control GST
In words: fluorescence anisotropy. Background: In fluorescence polarisation assays a small probe gives low polarisation when free and higher when bound to something large.

Assay [2] addresses T2, GST-WW-domain of Pin1 (human, UniProt Q13526 1-54).
T2 construct: range 1-54; also called GST-Pin1 WW-domain; Pin1 WW-domain; not shown: glutathione S-transferase (GST), N-terminal fusion partner
In words: fluorescence anisotropy.

For assay [3], the target named is T3, Pin1^Y23A (human, UniProt Q13526 1-163).
T3 construct: mature; also called Pin1^Y23A mutant
In words: ELISA.

In assay [4] the target is T1, GST. Description: fluorescence anisotropy. The source holds these as a separate data set.

B1: Pro-Rich peptide IPGTPPPNYD (peptide)
peptide: fluorescein-IPGTPPPNYD
With B1, the binding result in assay [1] and in assay [2] was “no binding” each time.

B2: tau peptide KVAVVRTPPKSPS (pT-231), SEQ ID NO: 30 (peptide)
peptide: KVAVVR[pT]PPKSPS
notes: also called pT231 tau peptide (row of Pin1^Y23A)
For B2, the binding result in assay [3] is “no binding”.

B3: Pintide analogue WFYpSPFLE (peptide)
peptide: fluorescein-WFY[pS]PFLE
notes: also called phosphopeptide
Take B3: the binding result in assay [4] is given as “no binding”.

B4: Cdc25 Peptide EQPLpTPVTDL (peptide)
peptide: fluorescein-EQPL[pT]PVTDL
notes: also called Cdc25C peptide
On to B4, for which the binding result in assay [1] was “no binding”.

B5: Cdc25 Peptide EQPLTPVTDL (nonphosphorylated) (peptide)
peptide: fluorescein-EQPLTPVTDL
Regarding B5, the binding result in assay [1] is reported as “no binding”.

B6: WFYSPFLE, nonphosphorylated control peptide (peptide)
peptide: fluorescein-WFYSPFLE
notes: also called nonphosphorylated peptide
With B6, the binding result in assay [4] is “no binding”.

These data come from patent publication US6495376 (dated 2002).
